One series has as its system N.BstNBI nicking endonuclease. Briefly: cleavage_in_vitro. To be noted: duplex 2; repeat 9a 21.3.
In turn, “CCTACGACTGGAACAATAAAACCTACGACTGGA / TCCAGTCGTAGGTGAGTCTGTTCCAGTCGTAGG [Duplex 2/9a T-1/B-2 5 mismatches]” showed an activity (relative mass units) of 18.5.

The series is the same for the next values; noted with them: duplex 7; repeat 8a 23.4.
As for “CCTACGACTGGAACAGTAACACCTACGACTGGA / TCCAGTCGTAGGTGAGTCTGTTCCAGTCGTAGG [Duplex 7/8a T-1/B-7 3 mismatches]”, the activity (relative mass units) stood at 21.2.

The same series, now with this note: duplex 9f; 9k printed with same T strand gave 22.6.
The sequence “CCTACGACTGGAACAATAAAACCTACGACTGGA / TCGTAGGTGAGTCTGTTCCAGTCGTAGG [Duplex 9f/9k T-1f/B-2]” yielded an activity (relative mass units) of 15.9.

Still in this series, the particulars now being: duplex 9g; 9l printed with same strands gave 22.5.
Sequence “CCTACGACTGGAACAATAAAACCTACGACTGGA / CGTAGGTGAGTCTGTTCCAGTCGTAGG [Duplex 9g/9l T-1g/B-2]” showed an activity (relative mass units) of 28.3.

The same series, now with this note: nicking coupled to Vent exo- extension, LC/MS of released fragment, Mg2+, trehalose, 60 C 1 h.
Regarding “CCTACGACTGGAACAGACTCACCTACGACTGGA (double strand) [Duplex 1 T-1/B-1 perfect]”, the activity (relative mass units) worked out at 121.

The same series, now with this note: same conditions.
For the sequence “CCTACGACTGGAACAGTAACACCTACGACTGGA / AGTCGTAGGTGAGTCTGTTCCAGTCGTAGG [Duplex 8d T-1d/B-7]”, the activity (relative mass units) turned out to be 29.2.
“CCTACGACTGGAACAGTAACACCTACGACTGGA / TAGGTGAGTCTGTTCCAGTCGTAGG [Duplex 8i T-1i/B-7]” registered an activity (relative mass units) of 14.9.
In turn, “CCTACGACTGGAACAATAAAACCTACGACTGGA / GTAGGTGAGTCTGTTCCAGTCGTAGG [Duplex 9h T-1h/B-2]” displayed an activity (relative mass units) of 22.7.
Take “CCTACGACTGGAACAATAAAACCTACGACTGGA / GAGTCTGTTCCAGTCGTAGG [Duplex 9n T-1n/B-2]”: the activity (relative mass units) came to 14.3.
As to “CCTACGACTGGAACAGTAACACCTACGACTGGA / CCAGTCGTAGGTGAGTCTGTTCCAGTCGTAGG [Duplex 8b T-1b/B-7]”, the activity (relative mass units) came to 28.3.
Regarding “CCTACGACTGGAACAGTAACACCTACGACTGGA / CGTAGGTGAGTCTGTTCCAGTCGTAGG [Duplex 8g T-1g/B-7]”, the activity (relative mass units) came out at 20.8.
“CCTACGACTGGAACAGTAACACCTACGACTGGA / GTGAGTCTGTTCCAGTCGTAGG [Duplex 8l T-1l/B-7]” showed an activity (relative mass units) of 15.6.
“CCTACGACTGGAACAGACACACCTACGACTGGA / TCCAGTCGTAGGTGAGTCTGTTCCAGTCGTAGG [Duplex 4 T-1/B-4 1 mismatch]”: the activity (relative mass units) turned out to be 61.5.
“CCTACGACTGGAACAATAAAACCTACGACTGGA / AGGTGAGTCTGTTCCAGTCGTAGG [Duplex 9j T-1j/B-2]” displayed an activity (relative mass units) of 21.4.
“CCTACGACTGGAACAGATTCACCTACGACTGGA / TCCAGTCGTAGGTGAGTCTGTTCCAGTCGTAGG [Duplex 3 T-1/B-3 1 mismatch]” displayed an activity (relative mass units) of 66.7.
Regarding “CCTACGACTGGAACAGTAACACCTACGACTGGA / AGGTGAGTCTGTTCCAGTCGTAGG [Duplex 8j T-1j/B-7]”, the activity (relative mass units) worked out at 18.3.
On to “CCTACGACTGGAACAGAAACACCTACGACTGGA / TCCAGTCGTAGGTGAGTCTGTTCCAGTCGTAGG [Duplex 6 T-1/B-6 2 mismatches]”, for which the activity (relative mass units) was 45.
Still for that read-out and setting: the result for “CCTACGACTGGAACAGTAACACCTACGACTGGA / GAGTCTGTTCCAGTCGTAGG [Duplex 8n T-1n/B-7]” reads 12.5; that for “CCTACGACTGGAACAATAAAACCTACGACTGGA / CCAGTCGTAGGTGAGTCTGTTCCAGTCGTAGG [Duplex 9b T-1b/B-2]”, 17.8.
“CCTACGACTGGAACAGTAACACCTACGACTGGA / GGTGAGTCTGTTCCAGTCGTAGG [Duplex 8k T-1k/B-7]” gave an activity (relative mass units) of 19.3.
In the case of “CCTACGACTGGAACAGTAACACCTACGACTGGA / GTCGTAGGTGAGTCTGTTCCAGTCGTAGG [Duplex 8e T-1e/B-7]”, the activity (relative mass units) was 14.6.
Regarding “CCTACGACTGGAACAATAAAACCTACGACTGGA / GTCGTAGGTGAGTCTGTTCCAGTCGTAGG [Duplex 9e T-1e/B-2]”, the activity (relative mass units) is 14.
Still for that read-out and setting: the result for “CCTACGACTGGAACAGTAACACCTACGACTGGA / GTAGGTGAGTCTGTTCCAGTCGTAGG [Duplex 8h T-1h/B-7]” reads 12.3; that for “CCTACGACTGGAACAGTAACACCTACGACTGGA / CAGTCGTAGGTGAGTCTGTTCCAGTCGTAGG [Duplex 8c T-1c/B-7]”, 11.5.
As for “CCTACGACTGGAACAGTAACACCTACGACTGGA / TCGTAGGTGAGTCTGTTCCAGTCGTAGG [Duplex 8f T-1f/B-7]”, the activity (relative mass units) was determined as 17.8.
On to “CCTACGACTGGAACAATAAAACCTACGACTGGA / CAGTCGTAGGTGAGTCTGTTCCAGTCGTAGG [Duplex 9c T-1c/B-2]”, for which the activity (relative mass units) is 19.2.
On to “CCTACGACTGGAACAATAAAACCTACGACTGGA / TGAGTCTGTTCCAGTCGTAGG [Duplex 9m T-1m/B-2]”, for which the activity (relative mass units) was 13.5.
Regarding “CCTACGACTGGAACAGTCTCACCTACGACTGGA / TCCAGTCGTAGGTGAGTCTGTTCCAGTCGTAGG [Duplex 5 T-1/B-5 1 mismatch]”, the activity (relative mass units) stood at 63.
For “CCTACGACTGGAACAGTAACACCTACGACTGGA / TGAGTCTGTTCCAGTCGTAGG [Duplex 8m T-1m/B-7]”, the activity (relative mass units) worked out at 18.3.
The sequence “CCTACGACTGGAACAATAAAACCTACGACTGGA / TAGGTGAGTCTGTTCCAGTCGTAGG [Duplex 9i T-1i/B-2]” had an activity (relative mass units) of 23.9.
Sequence “CCTACGACTGGAACAATAAAACCTACGACTGGA / AGTCGTAGGTGAGTCTGTTCCAGTCGTAGG [Duplex 9d T-1d/B-2]” yielded an activity (relative mass units) of 15.3.

These data come from patent US20030152952.
